Values belong to the substance of their own block, whether it stands above or below them.
Legend:
Yes SH2 domain = Yes SH2 domain (UniProt P07947); assay: GST-domain microarray probed with biotinylated peptide; details: reference: unphosphorylated peptide; sites Y251
Fyn SH2 domain = Fyn SH2 domain (UniProt P06241); assay: as above; details: reference: unphosphorylated peptide; sites Y251
Nck2 SH2 domain = Nck2 SH2 domain (UniProt O43639); assay: as above; details: reference: unphosphorylated peptide; sites Y251
Abl1 SH2 domain = Abl1 SH2 domain (UniProt P00519); assay: as above; details: reference: unphosphorylated peptide; sites Y251
Abl2 SH2 domain = Abl2 SH2 domain (UniProt P42684); assay: as above; details: reference: unphosphorylated peptide; sites Y251
[1] = molecular target: isolated PDZ domain of Pdlim5 fused to a Golgi localization sequence (UniProt Q96HC4); assay: Golgi co-relocalization assay (immunofluorescence, Pearson's correlation coefficient); details: HT-22 cells; co-expression of GLS-PDZ with isolated LIM 4xMut; parent: est. 0.84; read off a plot
UniProt Q96HC4, sequence (Q96HC4 2-85): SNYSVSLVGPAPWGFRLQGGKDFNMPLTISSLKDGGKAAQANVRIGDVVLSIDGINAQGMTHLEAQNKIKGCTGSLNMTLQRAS

[2] = molecular target: isolated LIM domain of Pdlim5 fused to a Golgi localization sequence; assay: as above; details: HT-22 cells; co-expression of GLS-LIM with isolated PDZ 4xMut; parent: est. 0.88; read off a plot

- binding against the reference (Yes SH2 domain): stronger
- binding against the reference (Fyn SH2 domain): stronger
- binding against the reference (Nck2 SH2 domain): stronger
- binding against the reference (Abl1 SH2 domain): stronger
- binding against the reference (Abl2 SH2 domain): stronger
Substance: Pdlim5 242-261 (from UniProt Q96HC4) pY251 peptide

- other: Pearson corr. coef. (r) [1]: 0.05
Substance: isolated LIM domain of Pdlim5 (not fused to GLS) C541G; F543A; T562A; C570A

- other: Pearson corr. coef. (r) [2]: 0.08
Substance: isolated PDZ domain of Pdlim5 (not fused to GLS) (from UniProt Q96HC4) P13G; R17A; K34G; K71A
